{
  "source": "patent WO2016073157A1",
  "about": "(dated 2016)",
  "binders": {"B1": {"name": "5A12 4.2 LC.Q89H/LC.L93K (\"D\") (Fab, V domains shown)", "VH": "EVQLVESGGGLVQPGGSLRLSCAASGFTISDYWIHWVRQAPGKGLEWVAGITPAGGYTYYADSVKGRFTISADTSKNTAYLQMNSLRAEDTAVYYCARFVFFLPYAMDYWGQGTLVTVSS", "VL": "DIQMTQSPSSLSASVGDRVTITCRASQFLSSFGVAWYQQKPGKAPKLLIYGASSLYSGVPSRFSGSGSGTDFTLTISSLQPEDFATYYCHQGLKSPLTFGQGTKVEIK", "notes": "5A12 4.2 variant; Fab on phage in the IC50 assay, purified Fab in SPR"}, "B2": {"name": "5A12 4.2 (Fab, V domains shown)", "VH": "B1 VH", "VL": "B1 VL with H90Q, K94L", "notes": "also called Fab5A12 4.2"}, "B3": {"name": "5A12 4.2 LC.Q89H (Fab, V domains shown)", "VH": "B1 VH", "VL": "B1 VL with K94L", "notes": "5A12 4.2 variant; Fab on phage in the IC50 assay; also called LC-89H"}, "B4": {"name": "5A12 4.2 LC.A34N (Fab, V domains shown)", "VH": "B1 VH", "VL": "B1 VL with A35N, H90Q, K94L", "notes": "5A12 4.2 variant; Fab on phage in the IC50 assay; also called LC-34N"}, "B5": {"name": "5A12 4.2 LC.L92S (Fab, V domains shown)", "VH": "B1 VH", "VL": "B1 VL with H90Q, L93S, K94L", "notes": "5A12 4.2 variant; Fab on phage in the IC50 assay; also called LC-92S"}, "B6": {"name": "5A12 4.2 LC.L93K (Fab, V domains shown)", "VH": "B1 VH", "VL": "B1 VL with H90Q", "notes": "5A12 4.2 variant; Fab on phage in the IC50 assay; also called LC-93K"}, "B7": {"name": "5A12 4.2.16.2 (Fab, V domains shown)", "VH": "B1 VH with H35Y, T58E, A106V", "VL": "B1 VL with A35G, H90W, K94L", "notes": "purified Fab as analyte in SPR; also called DAF16.2"}, "B8": {"name": "5A12 4.2 LC.Q89W (Fab, V domains shown)", "VH": "B1 VH", "VL": "B1 VL with H90W, K94L", "notes": "5A12 4.2 variant; Fab on phage in the IC50 assay; also called LC-89W"}},
  "key": {"[1]": {"target": "T1, human Fc fusion of Ang2 protein (human, UniProt O15123 275-496, limits assumed)", "T1 construct": "Captured by anti-human Fc on the CM5 chip; also called hAng2 (SPR flow cell); not shown: human Fc", "T1 sequence (looked up)": "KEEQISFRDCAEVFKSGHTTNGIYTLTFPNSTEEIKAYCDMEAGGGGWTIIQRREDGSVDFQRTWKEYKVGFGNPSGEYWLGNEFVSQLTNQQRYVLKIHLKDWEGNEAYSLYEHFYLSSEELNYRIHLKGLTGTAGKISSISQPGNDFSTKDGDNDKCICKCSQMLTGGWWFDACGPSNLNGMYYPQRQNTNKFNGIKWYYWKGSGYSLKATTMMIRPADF", "assay": "BIACORE T200 SPR, human Fc fusion of Ang2 captured by anti-human Fc, Fab as analyte, Ang2 inferred"}, "[2]": {"target": "T2, hVEGF109 (human, UniProt P15692-4 34-135, limits assumed)", "T2 construct": "Numbers count on the mature 165-amino acid VEGF, not on the precursor; also called human VEGF (hVEGF 109)", "T2 sequence (looked up)": "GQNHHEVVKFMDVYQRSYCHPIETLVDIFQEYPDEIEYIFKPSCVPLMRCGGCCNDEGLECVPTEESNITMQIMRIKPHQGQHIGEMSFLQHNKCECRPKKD", "assay": "phage competition ELISA (phage IC50), hVEGF109 in solution and on the plate, VEGF inferred"}, "[3]": {"target": "T2, hVEGF109", "assay": "BIACORE T200 SPR, hVEGF109 coupled to CM5 chip, Fab as analyte, VEGF inferred"}, "[4]": {"target": "T2, hVEGF109", "assay": "BIACORE SPR at 25 C; hVEGF109 immobilized on CM5 chip, variant clone as analyte (monovalent affinity)"}, "[5]": {"target": "T2, hVEGF109", "assay": "BIACORE SPR at 25 C; hVEGF109 immobilized on CM5 chip, Fab as analyte (monovalent affinity)"}, "[6]": {"target": "T3, His-tagged human Ang2 (hAng2his8) (human, UniProt O15123 19-496, limits assumed)", "T3 construct": "neither is tied to this construct; not shown: His tag (his8)", "T3 sequence (looked up)": "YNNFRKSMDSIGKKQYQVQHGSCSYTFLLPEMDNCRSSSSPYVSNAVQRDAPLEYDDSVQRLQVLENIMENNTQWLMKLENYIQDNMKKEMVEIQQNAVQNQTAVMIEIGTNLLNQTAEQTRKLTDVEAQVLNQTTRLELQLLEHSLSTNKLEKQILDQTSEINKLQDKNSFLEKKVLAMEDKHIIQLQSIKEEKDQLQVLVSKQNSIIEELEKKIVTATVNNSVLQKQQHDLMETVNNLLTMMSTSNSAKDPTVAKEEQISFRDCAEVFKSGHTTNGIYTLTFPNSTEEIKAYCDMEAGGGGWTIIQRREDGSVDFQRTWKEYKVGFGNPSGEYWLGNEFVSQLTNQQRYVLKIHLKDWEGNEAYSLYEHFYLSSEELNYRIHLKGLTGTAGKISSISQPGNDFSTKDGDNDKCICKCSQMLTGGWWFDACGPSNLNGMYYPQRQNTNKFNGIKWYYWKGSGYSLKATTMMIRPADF", "assay": "BIACORE SPR at 25 C; hAng2his8 immobilized on CM5 chip, Fab as analyte (monovalent affinity)"}},
  "note": "Residue numbers refer to the chain shown, from its start. Numbers in names are those of the source.",
  "data": [
    {"binder": "B1", "values": [
      {"measurement": "Kd", "setting": "[1]", "result": 0.259, "unit": "nM"},
      {"measurement": "IC50", "setting": "[2]", "result": 3.71, "unit": "nM"},
      {"measurement": "Kd", "setting": "[3]", "result": 0.675, "unit": "nM"}
    ]},
    {"binder": "B2", "values": [
      {"measurement": "apparent Kd (pooled screen)", "setting": "[4]", "result": 5, "unit": "nM"}
    ]},
    {"binder": "B3", "values": [
      {"measurement": "IC50", "setting": "[2]", "result": 0.138, "unit": "nM"}
    ]},
    {"binder": "B4", "values": [
      {"measurement": "IC50", "setting": "[2]", "result": 221, "unit": "nM"}
    ]},
    {"binder": "B5", "values": [
      {"measurement": "IC50", "setting": "[2]", "result": 27.7, "unit": "nM"}
    ]},
    {"binder": "B6", "values": [
      {"measurement": "IC50", "setting": "[2]", "result": 0.48, "unit": "nM"}
    ]},
    {"binder": "B7", "values": [
      {"measurement": "Kd", "setting": "[5]", "result": "< 0.003", "unit": "nM"},
      {"measurement": "Kd", "setting": "[6]", "result": 1.51, "unit": "nM"}
    ]},
    {"binder": "B8", "values": [
      {"measurement": "IC50", "setting": "[2]", "result": 2.55, "unit": "nM"}
    ]}
  ]
}
